The target in test [1] is GFP-250, a chimera of GFP with the cytosolic protein p115. The test is described as follows: co-IP.
Test [2] concerns the target recombinant GRP78 (19-654) Cys41 to Ala mutant (human, UniProt P11021 19-654, Cys41 (Cys to Ala)). The test is described as follows: cross-linking.
In test [3] the target is recombinant GRP78 (19-654) Cys420 to Ala mutant (human, UniProt P11021 19-654, Cys420 (Cys to Ala)). The test is described as follows: cross-linking.

Consider “GRP78 (glucose-regulated protein 78), endogenous in mouse embryonic fibroblasts (from UniProt P20029 20-655) (natural protein)”, for which the fold more GFP-250 interacting with GRP78 in WT MEFs than in NPGPx-/- MEFs in test [1] came out at 3 fold.

B1: oxidized recombinant NPGPx (19-187) (natural protein, human, UniProt Q96SL4 19-187, looked up)
chain: AQQEQDFYDFKAVNIRGKLVSLEKYRGSVSLVVNVASECGFTDQHYRALQQLQRDLGPHHFNVLAFPCNQFGQQEPDSNKEIESFARRTYSVSFPMFSKIAVTGTGAHPAFKYLAQTSGKEPTWNFWKYLVAPDGKVVGAWDPTVSVEEVRPQITALVRKLILLKREDL
modifications: single disulfide bond between Cys57 and Cys86
With B1, the binding result in test [2] and in test [3] was “binds” throughout.

Values taken from paper PMC3582359 (Molecular cell, 2012).
